{"source": "patent US20120295811", "about": "“APTAMERS DIRECTED AGAINST THE MATRIX PROTEIN-1 OF TYPE A INFLUENZA VIRUSES AND USES […]” (published 2012)", "biological_target": "Matrix protein-1 (M1) (Influenza A virus) (UniProt B4URD8)", "details": "low-density aptamer microarray, 50x dilution", "data": [{"substance": "tRNA", "values": [{"measurement": "binding signal (fluorescence units)", "value": -55}]}]}
